Measured values reported in patent US20070274915.

T1: bacterially-expressed HHR23A substrate, P54725
T1 chain: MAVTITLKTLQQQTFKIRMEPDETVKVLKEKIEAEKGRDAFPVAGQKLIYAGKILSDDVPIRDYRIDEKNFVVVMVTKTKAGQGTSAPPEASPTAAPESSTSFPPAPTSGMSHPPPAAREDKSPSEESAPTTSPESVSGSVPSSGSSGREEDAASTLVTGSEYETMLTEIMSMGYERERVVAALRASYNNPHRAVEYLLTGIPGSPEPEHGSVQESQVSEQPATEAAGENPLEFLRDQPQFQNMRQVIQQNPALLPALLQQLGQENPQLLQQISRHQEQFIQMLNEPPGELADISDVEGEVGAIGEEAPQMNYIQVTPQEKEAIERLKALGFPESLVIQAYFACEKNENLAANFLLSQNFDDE

B1: myc-tagged Nedd4 isoform (accession number KIAA0093) (protein)
chain: MATCAVEVFGLLEDEENSRIVRVRVIAGIGLAKKDILGASDPYVRVTLYDPMNGVLTSVQTKTIKKSLNPKWNEEILFRVHPQQHRLLFEVFDENRLTRDDFLGQVDVPLYPLPTENPRLERPYTFKDFVLHPRSHKSRVKGYLRLKMTYLPKTSGSEDDNAEQAEELEPGWVVLDQPDAACHLQQQQEPSPLPPGWEERQDILGRTYYVNHESRRTQWKRPTPQDNLTDAENGNIQLQAQRAFTTRRQISEETESVDNRESSENWEIIREDEATMYSNQAFPSPPPSSNLDVPTHLAEELNARLTIFGNSAVSQPASSSNHSSRRGSLQAYTFEEQPTLPVLLPTSSGLPPGWEEKQDERGRSYYVDHNSRTTTWTKPTVQATVETSQLTSSQSSAGPQSQASTSDSGQQVTQPSEIEQGFLPKGWEVRHAPNGRPFFIDHNTKTTTWEDPRLKIPAHLRGKTSLDTSNDLGPLPPGWEERTHTDGRIFYINHNIKRTQWEDPRLENVAITGPAVPYSRDYKRKYEFFRRKLKKQNDIPNKFEMKLRRATVLEDSYRRIMGVKRADFLKARLWIEFDGEKGLDYGGVAREWFFLISKEMFNPYYGLFEYSATDNYTLQINPNSGLCNEDHLSYFKFIGRVAGMAVYHGKLLDGFFIRPFYKMMLHKPITLHDMESVDSEYYNSLRWILENDPTELDLRFIIDEELFGQTHQHELKNGGSEIVVTNKNKKEYIYLVIQWRFVNRIQKQMAAFKEGFFELIPQDLIKIFDENELELLMCGLGDVDVNDWREHTKYKNGYSANHQVIQWFWKAVLMMDSEKRIRLLQFVTGTSRVPMNGFAELYGSNGPQSFTVEQWGTPEKLPRAHTCFNRLDLPPYESFEELWDKLQMAIENTQGFDGVD
B2: catalytically inactive Nedd4 protein, bearing an alanine substitution at the active cysteine of the HECT domain (protein)
chain: B1 chain
B3: E6AP (purified, full-length) (protein)
chain: MKRAAAKHLIERYYHQLTEGCGNEACTNEFCASCPTFLRMDNNAAAIKALELYKINAKLCDPHPSKKGASSAYLENSKGAPNNSCSEIKMNKKGARIDFKDVTYLTEEKVYEILELCREREDYSPLIRVIGRVFSSAEALVQSFRKVKQHTKEELKSLQAKDEDKDEDEKEKAACSAAAMEEDSEASSSRIGDSSQGDNNLQKLGPDDVSVDIDAIRRVYTRLLSNEKIETAFLNALVYLSPNVECDLTYHNVYSRDPNYLNLFIIVMENRNLHSPEYLEMALPLFCKAMSKLPLAAQGKLIRLWSKYNADQIRRMMETFQQLITYKVISNEFNSRNLVNDDDAIVAASKCLKMVYYANVVGGEVDTNHNEEDDEEPIPESSELTLQELLGEERRNKKGPRVDPLETELGVKTLDCRKPLIPFEEFINEPLNEVLEMDKDYTFFKVETENKFSFMTCPFILNAVTKNLGLYYDNRIRMYSERRITVLYSLVQGQQLNPYLRLKVRRDHIIDDALVRLEMIAMENPADLKKQLYVEFEGEQGVDEGGVSKEFFQLVVEEIFNPDIGMFTYDESTKLFWFNPSSFETEGQFTLIGIVLGLAIYNNCILDVHFPMVVYRKLMGKKGTFRDLGDSHPVLYQSLKDLLEYEGNVEDDMMITFQISQTDLFGNPMMYDLKENGDKIPITNENRKEFVNLYSDYILNKSVEKQFKAFRRGFHMVTNESPLKYLFRPEEIELLICGSRNLDFQALEETTEYDGGYTRDSVLIREFWEIVHSFTDEQKRLFLQFTTGTDRAPVGGLGKLKMIIAKNGPDTERLPTSHTCFNVLLLPEYSSKEKLKERLLKAITYAKGFGML

Legend:
[1] = target: T1, bacterially-expressed HHR23A substrate, …

Sequence of AU-tagged PLC-γ1 (P19174 2-1290): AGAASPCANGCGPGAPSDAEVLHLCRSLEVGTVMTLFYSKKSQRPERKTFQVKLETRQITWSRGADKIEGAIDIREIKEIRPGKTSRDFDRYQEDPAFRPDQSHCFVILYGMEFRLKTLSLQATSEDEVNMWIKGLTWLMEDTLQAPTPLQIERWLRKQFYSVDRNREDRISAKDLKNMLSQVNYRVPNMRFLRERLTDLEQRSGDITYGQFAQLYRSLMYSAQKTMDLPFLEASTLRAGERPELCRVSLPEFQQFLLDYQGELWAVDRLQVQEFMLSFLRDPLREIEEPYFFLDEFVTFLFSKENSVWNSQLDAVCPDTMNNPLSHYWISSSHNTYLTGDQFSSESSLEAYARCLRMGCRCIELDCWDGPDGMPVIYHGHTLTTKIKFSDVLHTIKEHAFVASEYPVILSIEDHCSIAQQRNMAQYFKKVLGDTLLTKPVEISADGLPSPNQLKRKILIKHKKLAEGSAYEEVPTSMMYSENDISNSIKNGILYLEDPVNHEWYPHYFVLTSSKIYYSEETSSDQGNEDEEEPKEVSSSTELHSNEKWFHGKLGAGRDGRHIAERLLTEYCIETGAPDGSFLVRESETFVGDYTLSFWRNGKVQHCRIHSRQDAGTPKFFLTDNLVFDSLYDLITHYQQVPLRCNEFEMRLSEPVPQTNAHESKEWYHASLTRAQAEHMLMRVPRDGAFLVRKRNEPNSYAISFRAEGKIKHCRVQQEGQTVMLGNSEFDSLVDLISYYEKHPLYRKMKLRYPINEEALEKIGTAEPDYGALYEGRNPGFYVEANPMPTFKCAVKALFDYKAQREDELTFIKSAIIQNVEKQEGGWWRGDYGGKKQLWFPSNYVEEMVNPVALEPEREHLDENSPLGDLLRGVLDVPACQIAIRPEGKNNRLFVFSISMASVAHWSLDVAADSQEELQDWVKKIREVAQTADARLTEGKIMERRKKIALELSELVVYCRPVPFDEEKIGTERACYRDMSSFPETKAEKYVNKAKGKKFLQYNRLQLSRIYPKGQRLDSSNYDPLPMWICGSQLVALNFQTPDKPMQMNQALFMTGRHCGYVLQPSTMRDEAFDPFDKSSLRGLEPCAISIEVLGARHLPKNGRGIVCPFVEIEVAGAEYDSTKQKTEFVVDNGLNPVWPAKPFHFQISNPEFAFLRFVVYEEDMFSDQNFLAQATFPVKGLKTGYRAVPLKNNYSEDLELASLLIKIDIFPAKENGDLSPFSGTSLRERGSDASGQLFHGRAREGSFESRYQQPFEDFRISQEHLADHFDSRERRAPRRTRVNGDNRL

Row | Protein | ionomycin-dependent degradation of PLC-γ1 (HEK 293 transfection, immunoblot) (AU-tagged PLC-γ1) | trans-ubiquitination of HHR23A (in vitro reaction with E1, E2 UbcH7, ubiquitin and ATP; SDS-PAGE, anti-HHR23A immunoblot) [1]
1 | B1 | Itch and Nedd4 both facilitated the ionomycin-dependent degradation of PLC-γ1 | –
2 | B2 | did not promote this decrease (FIG. 17D; lanes 5, 6), but prevented the small but significant decrease in PLC-γ1 levels observed in ionomycin-treated cells | –
3 | B3 | – | time-dependent increase in the amount of ubiquitin-conjugated HHR23A substrate
